These are literature values, as cited in publication PMC7312390.

Usually pKa stands for the negative logarithm of the acid dissociation constant.

One data set deals with His57 (UniProt position 57, VVTAAHCGVTT). Particulars: free (apo) chymotrypsin.
Another data set concerns the target Cys25 (UniProt position 158, GSCGSCWAFSA). The settings on record: free cysteine protease (Cys/His ion pair in the apo state).

As for “chymotrypsin (not stated in the article (PDB 4CHA is bovine, Bos taurus, alpha-chymotrypsin))”, the pKa in the data set with His57 is listed as 7.5.
Consider “papain (Carica papaya (not stated in the article; inferred))”, for which the pKa with Cys25 is 3.3.
